Ends that are not written are not given here. * marks the point of attachment. Biotin = O=C1N[C@H]2[C@H](CS[C@H]2CCCCC(=O)*)N1
Experiments:
[1] = target: T1, human A-beta(1-40) peptide, monomeric (BAM) (human, biotin at the C-terminus in capture ELISA, SPR and TR-FRET; not biotinylated where coated directly (Example 7)); assay: cell-based or functional assay
[2] = target: T1, human A-beta(1-40) peptide, monomeric …; assay: BAM ELISA
A-beta(12-28) peptide = target: T2, A-beta(12-28) peptide (human); assay: SPR on captured A-beta(12-28)
T2 construct: Bachem peptide captured on streptavidin chip; also called monomeric A-beta(12-28); central region
T2 peptide: Biotin-VHHQKLVFFAEDVGSNK
Description: (§1) After capturing, surfaces are blocked by injecting an excess (200 μg/ml) of d-biotin for 180 s at 5 μl/min. A reference surface is washed and blocked with d-biotin. HBS-EP+buffer is used as the running buffer and experiments are performed at 25° C. For off-rate screening, periplasmic extracts of VHHs are injected at a 10-fold dilution for 2 min at 45 μl/min and are allowed to dissociate for 10 min. […] Between different VHH samples, the surfaces are regenerated with regeneration buffer (50 mM NaOH) for 25 s at 45 μl/min followed by 10 s 6M GuHCl at 45 μl/min if regeneration is incomplete. […] Data are double referenced by subtraction of the curves on the reference channel and of a blank running buffer injection. Sensorgrams are evaluated by fitting a 1:1 dissociation model using the Biacore T100 Evaluation software v1.1.1.

[3] = target: T1, human A-beta(1-40) peptide, monomeric …; assay: TR-FRET competition, labelled ABII60A10
[4] = target: T3, aggregated A-beta(1-40) peptide (BAA) (human); assay: BAA ELISA
T3 construct: also called A-beta peptide aggregates

[5] = target: T1, human A-beta(1-40) peptide, monomeric …; assay: TR-FRET competition, labelled ABII60A10; extrapolated curve
[6] = target: T1, human A-beta(1-40) peptide, monomeric …; assay: TR-FRET competition, labelled ABII42D4
A-beta(1-16) peptide = target: T4, A-beta(1-16) peptide (human); assay: SPR on captured A-beta(1-16)
T4 construct: Bachem peptide captured on streptavidin chip; also called monomeric A-beta(1-16)
T4 peptide: DAEFRHDSGYEVHHQK-biotin
Description: as §1

[7] = target: T1, human A-beta(1-40) peptide, monomeric …; assay: 42D4 TR-FRET assay (labelled ABII42D4)
[8] = target: T1, human A-beta(1-40) peptide, monomeric …; assay: 60A10 TR-FRET assay (labelled ABII60A10)
[9] = target: T1, human A-beta(1-40) peptide, monomeric …; assay: ABII050 TR-FRET competition assay
[10] = target: T1, human A-beta(1-40) peptide, monomeric …; assay: ABII002 TR-FRET competition assay

B1: ABII14D4 (VHH)
VHH: EVQLVESGGGLVQAGGSLRLSCAASGRTFSTYNMAWFRHAPGKEREFVAAISRSGGSTYYVDSVKGRFTISRDNAKNTVYLQMNSLKPEDTAIYYCAAAPRGRSIVTTATYDYWGQGTQVTVSS
- inhibition of peptide aggregation (ThT fluorescence), 28 µM VHH [1]: 78%
- EC50 [2]: 124 nM
- binding result (A-beta(12-28) peptide): binds
- IC50 [3]: 744 nM
- EC50 [4]: 6.8 nM

B2: ABII35C7 (VHH)
VHH: EVQLVESGGGLVQPGGSLRLSCAASGRTFSIYNMGWFRQAPGKEREFVAAISRSGSSTYYGDSVKGRFTISRDNAKKTVYLQMNSLKPEDTAVYHCAAARFGTPINTRGSYDYWGQGTQVTVSS
- IC50 [5]: 206 nM
- inhibition of peptide aggregation (ThT fluorescence), 28 µM VHH [1]: 82%
- EC50 [2]: 1.9 nM
- binding result (A-beta(12-28) peptide): binds
- EC50 [4]: 1.3 nM

B3: ABII35G2 (VHH)
VHH: EVQLVESGGGLVQAGGSLRLSCVASGRTFSNYGMGWFRQAPGKDREFVAAISRSGGTTYYEDDVKGRFTISRDNAKNSVYLQMNSLKPEDTAVYYCAARPSYVAVNIAASYNNWGQGTQVTVSS
- IC50 [5]: 645 nM
- inhibition of peptide aggregation (ThT fluorescence), 28 µM VHH [1]: 76%
- EC50 [2]: 10.7 nM
- binding result (A-beta(12-28) peptide): binds
- EC50 [4]: 5.4 nM

B4: ABII35D2 (VHH)
VHH: EVQLVESGGGLVQAGGSLRLSCVASGLTFSSYNMGWFRQAPGKEREFVAAISRSGGSTYYTDSVKGRFTISRDSSKNTVYLQMNSLKPEDTADYYCAAALFGSAINLLSEYRYWGQGTQVTVSS
- IC50 [5]: 773 nM
- inhibition of peptide aggregation (ThT fluorescence), 28 µM VHH [1]: 73%
- EC50 [2]: 37.5 nM
- binding result (A-beta(12-28) peptide): binds
- EC50 [4]: 12.8 nM

B5: ABII42B10 (VHH)
VHH: EVQLVESGGGLVQRGGSLRLSCAASGRTFSNLNMGWFRQAPGKEREFQAAISRSGGTTYYADSVKGRFTISRDNAKSTVFLQMNSLKPEDTAVYYCAAASPGGPINYGRAYDSWGQGTQVTVSS
- inhibition of peptide aggregation (ThT fluorescence), 28 µM VHH [1]: 77%
- EC50 [2]: 10.8 nM
- binding result (A-beta(12-28) peptide): binds
- IC50 [3]: 85.6 nM
- EC50 [4]: 2.1 nM

B6: ABII42F5 (VHH)
VHH: EVQLVESGGGLVQAGDSLRLSCTASGRTFTDYNIGWFCQAPGKEREFVAAISGSGGSTYYADSAKGRFTISRDNAKNTVYLQMNSLKPEDTAVYACAAAQRRLAVNVDTSYNVWGQGTQVTVSS
- IC50 [5]: 228 nM
- inhibition of peptide aggregation (ThT fluorescence), 28 µM VHH [1]: 79%
- EC50 [2]: 41.1 nM
- binding result (A-beta(12-28) peptide): binds
- EC50 [4]: 20 nM

B7: ABII42E10 (VHH)
VHH: EVQLVESGGGLVQPGGSLRLSCAASGLTFTLYTMGWFRQAPGKEREFVAAISASGGTTYYADSVKGRFALSRDNAKNTVFLQMNTLKPEDTAEYLCAAAFRGFAINTPTSYNYWGQGTQVTVSS
- IC50 [5]: 205 nM
- inhibition of peptide aggregation (ThT fluorescence), 28 µM VHH [1]: 75%
- EC50 [2]: 17.5 nM
- binding result (A-beta(12-28) peptide): binds
- EC50 [4]: 2.6 nM

B8: ABII42G10 (VHH)
VHH: EVQLVESGGGLVQAGGSLRLSCLFSGRTFSTNGVGWFRQVPGKEREFVSAINWSGSKTNYAEPVKGRFTISRDNAKNTAYLQMNSLKPEDTAVYYCAAYRTSISRYEYAYWGQGTQVTVSS
- IC50 [6]: > 1000 nM
- binding result (A-beta(1-16) peptide): binds
- EC50 [2]: 87 nM
- EC50 [4]: 49.5 nM

B9: ABII60D2 (VHH)
VHH: EVQLVESGGGSVQAGGSLRLSCAYSGSIFSIKTMGWYRQAPGKQRELVGRITSGDSTNYADSVKGRFTISRDKAKTTVYLQMNNLKPEDTAVYYCAARRPWPRSDVWGQGTQVTVSS
- binding result (A-beta(1-16) peptide): binds
- EC50 [2]: > 1000 nM

B10: ABII60H5 (VHH)
VHH: EVQLVESGGGLVQVGGSLRLSCAASGNIGSINAMGWYRQAPGKEREWVAIITNSGSVNYGPDSVKGRFTISGDNAKNRVYLQMDSLKPEDTAVYYCAAESWGRSPLKYLGQGTQVTVSS
- binding result (A-beta(1-16) peptide): binds
- EC50 [2]: > 1000 nM

B11: ABII5D2 (VHH)
VHH: EVQLVESGGGLVQAGGSLRLSCAASGRTFSSYAMGWVRQAPGKERELVATISQSGGLRSYADSVKGRFTISRDNAKNTVYLQMNSLTPGDTAVYYCAAQARATAWSPQRVDYWGQGTQVTVSS
- IC50 [6]: > 1000 nM
- binding result (A-beta(1-16) peptide): binds
- EC50 [2]: 54.1 nM
- EC50 [4]: 11.7 nM

B12: ABII1E11 (VHH)
VHH: EVQLVESGGGLVQPGGSLRLSCAASGRTFSDYNMGWFHQAPGKEREIVAAISRSGRSTYYTVSVEGRFTISRDNAKNTVDLEMNSLKPEDTGIYYCAANSAGRAINLPLYKYWGQGTQVTVSS
- IC50 [5]: 844 nM
- EC50 [2]: 27.3 nM
- binding result (A-beta(12-28) peptide): binds
- EC50 [4]: 19.2 nM

B13: ABII42D4-35GS-ABII60A10 (designed binder)
chain: EVQLVESGGGLVLAGGSLRLSCVHSGPTFSTDTMGWFRQAPGKEREFVAAVTWNSGRTNYADSVKGRFTVSRDNTRNAAYLQMSGLKDEDTAVYYCTAHRLVVGGTSVGDWRYWGQGTQVTVSSGGGGSGGGGSGGGGSGGGGSGGGGSGGGGSGGGGSEVQLVESGGGLVQAGGSLRLSCAASGRTFNNYNMGWFRQAPGKEREFVAAVSRSGVSTYYADSVKGRFTISRDNAKNAVYLQMNSLKPEDTAIYYCGAAYRGTAINVRRSYDSWGQGTQVTVSS
notes: biparatopic VHH construct
- IC50 [7]: 0.05 nM
- IC50 [8]: 0.084 nM

B14: ABII60A10-35GS-ABII42D4 (designed binder)
chain: EVQLVESGGGLVQAGGSLRLSCAASGRTFNNYNMGWFRQAPGKEREFVAAVSRSGVSTYYADSVKGRFTISRDNAKNAVYLQMNSLKPEDTAIYYCGAAYRGTAINVRRSYDSWGQGTQVTVSSGGGGSGGGGSGGGGSGGGGSGGGGSGGGGSGGGGSEVQLVESGGGLVLAGGSLRLSCVHSGPTFSTDTMGWFRQAPGKEREFVAAVTWNSGRTNYADSVKGRFTVSRDNTRNAAYLQMSGLKDEDTAVYYCTAHRLVVGGTSVGDWRYWGQGTQVTVSS
notes: biparatopic VHH construct
- IC50 [7]: 0.055 nM
- IC50 [8]: 0.091 nM

B15: ABII323-PEG40 (designed binder)
chain: VQLLESGGGLVQPGGSLRLSCAASGRTFNNYNMGWFRQAPGKGREFVAAVSRSGVSTYYADSVKGRFTISRDNSKNTVYLQMNSLRPEDTAVYYCAAAYRGTAINVRRSYSSWGQGTLVTVSSGGGGSGGGGSGGGGCGGGGSGGGGSGGGGSGGGGSEVQLLESGGGLVQPGGSLRLSCVHSGPTFRTDTMGWFRQAPGKGREFVAAVTWNSGRINYADSVKGRFTISRDNSKNTAYLQMNSLRPEDTAVYYCAAHRFVVGGNRVEDWRYWGQGTLVTVSS
modifications: PEG40 on the Cys at position 15 of the 35GS linker
notes: 059-35GSC-035
- IC50 [9]: 0.2 nM
- IC50 [10]: 0.18 nM

B16: ABII059-27GS-ABII035-MSA (designed binder)
chain: EVQLLESGGGLVQPGGSLRLSCAASGRTFNNYNMGWFRQAPGKGREFVAAVSRSGVSTYYADSVKGRFTISRDNSKNTVYLQMNSLRPEDTAVYYCAAAYRGTAINVRRSYSSWGQGTLVTVSSGGGSGGGGSGGGGSGGGGSGGGGSGGGEVQLLESGGGLVQPGGSLRLSCVHSGPTFRTDTMGWFRQAPGKGREFVAAVTWNSGRINYADSVKGRFTISRDNSKNTAYLQMNSLRPEDTAVYYCAAHRFVVGGNRVEDWRYWGQGTLVTVSS
notes: built from the printed name; not shown: mouse serum albumin
- IC50 [9]: 0.18 nM
- IC50 [10]: 0.19 nM

B17: ABII059-27GS-ABII035-MSA_D3 (designed binder)
chain: EVQLLESGGGLVQPGGSLRLSCAASGRTFNNYNMGWFRQAPGKGREFVAAVSRSGVSTYYADSVKGRFTISRDNSKNTVYLQMNSLRPEDTAVYYCAAAYRGTAINVRRSYSSWGQGTLVTVSSGGGSGGGGSGGGGSGGGGSGGGGSGGGEVQLLESGGGLVQPGGSLRLSCVHSGPTFRTDTMGWFRQAPGKGREFVAAVTWNSGRINYADSVKGRFTISRDNSKNTAYLQMNSLRPEDTAVYYCAAHRFVVGGNRVEDWRYWGQGTLVTVSS
notes: built from the printed name; not shown: domain III of mouse serum albumin
- IC50 [9]: 0.12 nM
- IC50 [10]: 0.1 nM

Source: US20120058118A1 (Boehringer Ingelheim, published 2012)
